In PMC6488028:

Biological target: GenB1 (aminotransferase involved in C6'-amination, Micromonospora echinospora) (Micromonospora echinospora)
Test: crystal structure

- stoichiometry N: 2
Substance: GenB1 (aminotransferase involved in C6'-amination, Micromonospora echinospora) (enzyme)
